According to patent US20240261333A1 (published 2024):
One block for each binder: values may come before it.

Experiments:
RPS14 = RPS14 (human, UniProt P62263 2-151); assay: co-IP with anti-FLAG, C-FLAG B3GNT2, mass spectrometry
CHCHD3 = target: T1, CHCHD3 (human, UniProt Q9NX63 2-227, limits assumed); assay: as above
T1 construct: also called NP_001304106.1 (+1)
T1 sequence (looked up): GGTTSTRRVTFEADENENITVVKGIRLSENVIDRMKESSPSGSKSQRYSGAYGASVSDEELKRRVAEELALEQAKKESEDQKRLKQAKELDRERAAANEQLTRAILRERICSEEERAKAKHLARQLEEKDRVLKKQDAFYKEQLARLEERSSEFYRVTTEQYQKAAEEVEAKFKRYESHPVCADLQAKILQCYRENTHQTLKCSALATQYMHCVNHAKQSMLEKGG

TIMP3 = target: T2, TIMP3 (human, UniProt P35625 24-211); assay: co-IP with mouse anti-FLAG from lysate of cells overexpressing N-FLAG B3GNT2, then mass spectrometry
T2 construct: Identified by mass spectrometry in the co-IP; also called NP_000353.1
T2 sequence (looked up): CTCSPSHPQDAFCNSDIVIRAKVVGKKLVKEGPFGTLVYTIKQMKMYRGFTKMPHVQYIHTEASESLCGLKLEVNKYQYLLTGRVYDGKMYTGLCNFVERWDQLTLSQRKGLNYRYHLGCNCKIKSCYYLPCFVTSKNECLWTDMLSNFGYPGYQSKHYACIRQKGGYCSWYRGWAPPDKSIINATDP
Description: (§1) Cells were plated in 10-cm cell culture dishes and grown to 60-80% confluency. For each condition, two biological replicates were harvested for co-IP. Cells were washed with PBS and 4 mL of lysis buffer (20 mM HEPES, 1% Triton X-100, 150 mM NaCl, 1 mM EDTA, and 10% glycerol) containing protease inhibitor cocktail was added. Cells were scraped and lysate was incubated at 4° C. under rotary agitation for 1 h. Lysate was centrifuged at 14,000×g for 10 min at 4° C. Supernatant was transferred to a new tube and an aliquot was taken as the input. […] For Western blots, 10 μg/mL Chicken Anti-FLAG (Aves labs ET-DY100) and IgY control (R&D Systems AB-101-C) antibodies were biotinylated (Thermo Fisher Scientific 90407) and added to the respective conditions. Lysates with antibodies were incubated at 4° C. under rotary agitation overnight. For each mL of lysate, 50 μL of Pierce Protein A/G Magnetic Beads (Mass spectrometry; Thermo Fisher Scientific 88803) or Pierce Streptavidin Magnetic Beads (Western blot; Thermo Fisher Scientific 88817) was washed twice with lysis buffer. Lysates with antibodies were added to the beads and incubated at 4° C. under rotary agitation for 4 h. Beads were washed with lysis buffer 3 times and resuspended in lysis buffer for storage.
(§2) Magnetic beads were resuspended in 100 mM Tris pH 7.8, reduced, alkylated and digested with trypsin at 37° ° C. overnight. This solution was subjected to solid phase extraction to concentrate the peptides and remove unwanted reagents followed by injection onto a Shimadzu HPLC with fraction collector. Eight fractions were collected and after concentration were injected on a Waters NanoAcquity HPLC equipped with a self-packed Aeris 3 μm C18 analytical column 0.075 mm by 20 cm, (Phenomenex). Peptides were eluted using standard reverse-phase gradients. The effluent from the column was analyzed using a Thermo Orbitrap Elite mass spectrometer (nanospray configuration) operated in a data dependent manner for 54 minutes. The resulting fragmentation spectra were correlated against the known database using Proteome Discover 1.4 (Thermo Fisher Scientific).

KHDRBS1 = target: T3, KHDRBS1 (human, UniProt Q07666 1-443); assay: as above
T3 construct: Identified by mass spectrometry in the co-IP; also called NP_006550.1
Description: as §1, §2

CPSF6 = target: T4, CPSF6 (human, UniProt Q16630-2 1-588, limits assumed); assay: as above
T4 construct: Identified by mass spectrometry in the co-IP; also called NP_001287876.1 (+3)
T4 sequence (looked up): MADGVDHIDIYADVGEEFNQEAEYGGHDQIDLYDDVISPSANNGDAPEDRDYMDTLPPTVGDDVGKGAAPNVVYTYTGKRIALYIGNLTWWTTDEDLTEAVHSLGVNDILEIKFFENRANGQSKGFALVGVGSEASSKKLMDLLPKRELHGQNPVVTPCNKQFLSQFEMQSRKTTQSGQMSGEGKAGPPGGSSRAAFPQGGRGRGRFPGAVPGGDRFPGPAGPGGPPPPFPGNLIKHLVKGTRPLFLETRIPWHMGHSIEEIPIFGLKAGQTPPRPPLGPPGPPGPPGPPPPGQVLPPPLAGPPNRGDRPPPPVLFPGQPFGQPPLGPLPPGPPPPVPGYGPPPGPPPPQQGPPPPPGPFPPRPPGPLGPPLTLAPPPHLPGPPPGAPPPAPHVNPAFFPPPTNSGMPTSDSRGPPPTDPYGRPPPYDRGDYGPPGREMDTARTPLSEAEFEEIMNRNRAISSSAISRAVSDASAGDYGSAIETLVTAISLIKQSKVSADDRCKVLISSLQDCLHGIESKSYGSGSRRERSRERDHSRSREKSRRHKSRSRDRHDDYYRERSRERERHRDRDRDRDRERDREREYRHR
Description: as §1, §2

TCP1 = target: T5, TCP1 (human, UniProt P17987 1-556); assay: as above
T5 construct: Identified by mass spectrometry in the co-IP; also called NP_110379.2
Description: as §1, §2

TFAM = target: T6, TFAM (human, UniProt Q00059 43-246); assay: as above
T6 construct: Identified by mass spectrometry in the co-IP; also called NP_003192.1
T6 sequence (looked up): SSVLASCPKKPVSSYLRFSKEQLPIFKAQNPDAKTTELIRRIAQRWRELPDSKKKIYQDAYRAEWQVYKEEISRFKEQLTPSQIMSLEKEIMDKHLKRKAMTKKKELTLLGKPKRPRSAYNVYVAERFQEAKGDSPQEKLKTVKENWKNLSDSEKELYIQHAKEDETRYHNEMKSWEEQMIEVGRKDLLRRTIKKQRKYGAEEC
Description: as §1, §2

SUPT16H = target: T7, SUPT16H (human, UniProt Q9Y5B9 2-1047); assay: as above
T7 construct: Identified by mass spectrometry in the co-IP; also called NP_009123.1 (+1)
Description: as §1, §2

T3 sequence (Q07666 whole entry): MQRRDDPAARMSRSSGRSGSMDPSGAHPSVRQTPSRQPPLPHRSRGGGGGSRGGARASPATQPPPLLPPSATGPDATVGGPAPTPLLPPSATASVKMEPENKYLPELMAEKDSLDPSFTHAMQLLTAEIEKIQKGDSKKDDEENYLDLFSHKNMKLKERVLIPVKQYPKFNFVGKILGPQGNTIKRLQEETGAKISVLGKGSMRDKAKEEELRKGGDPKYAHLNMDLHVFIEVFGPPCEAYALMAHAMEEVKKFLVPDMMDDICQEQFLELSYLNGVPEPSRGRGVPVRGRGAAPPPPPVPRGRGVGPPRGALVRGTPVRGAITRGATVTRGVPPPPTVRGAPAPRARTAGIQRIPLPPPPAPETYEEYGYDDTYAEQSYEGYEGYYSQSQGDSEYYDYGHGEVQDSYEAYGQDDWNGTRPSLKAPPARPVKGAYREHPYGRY
T5 sequence (P17987 whole entry): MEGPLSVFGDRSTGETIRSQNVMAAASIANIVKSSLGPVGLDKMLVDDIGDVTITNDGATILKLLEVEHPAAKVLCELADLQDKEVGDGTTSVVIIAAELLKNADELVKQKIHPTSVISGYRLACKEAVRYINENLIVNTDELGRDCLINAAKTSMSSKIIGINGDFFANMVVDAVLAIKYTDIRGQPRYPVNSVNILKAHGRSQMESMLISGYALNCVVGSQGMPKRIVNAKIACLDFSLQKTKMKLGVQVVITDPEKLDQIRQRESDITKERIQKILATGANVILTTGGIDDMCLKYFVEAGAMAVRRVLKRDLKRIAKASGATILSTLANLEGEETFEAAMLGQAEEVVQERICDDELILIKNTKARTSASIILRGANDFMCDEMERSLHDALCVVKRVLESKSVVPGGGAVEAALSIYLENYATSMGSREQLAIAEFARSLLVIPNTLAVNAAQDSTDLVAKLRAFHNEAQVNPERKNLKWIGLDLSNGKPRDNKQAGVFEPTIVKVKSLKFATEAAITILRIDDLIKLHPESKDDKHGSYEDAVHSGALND
T7 sequence (Q9Y5B9 2-1047 limits assumed): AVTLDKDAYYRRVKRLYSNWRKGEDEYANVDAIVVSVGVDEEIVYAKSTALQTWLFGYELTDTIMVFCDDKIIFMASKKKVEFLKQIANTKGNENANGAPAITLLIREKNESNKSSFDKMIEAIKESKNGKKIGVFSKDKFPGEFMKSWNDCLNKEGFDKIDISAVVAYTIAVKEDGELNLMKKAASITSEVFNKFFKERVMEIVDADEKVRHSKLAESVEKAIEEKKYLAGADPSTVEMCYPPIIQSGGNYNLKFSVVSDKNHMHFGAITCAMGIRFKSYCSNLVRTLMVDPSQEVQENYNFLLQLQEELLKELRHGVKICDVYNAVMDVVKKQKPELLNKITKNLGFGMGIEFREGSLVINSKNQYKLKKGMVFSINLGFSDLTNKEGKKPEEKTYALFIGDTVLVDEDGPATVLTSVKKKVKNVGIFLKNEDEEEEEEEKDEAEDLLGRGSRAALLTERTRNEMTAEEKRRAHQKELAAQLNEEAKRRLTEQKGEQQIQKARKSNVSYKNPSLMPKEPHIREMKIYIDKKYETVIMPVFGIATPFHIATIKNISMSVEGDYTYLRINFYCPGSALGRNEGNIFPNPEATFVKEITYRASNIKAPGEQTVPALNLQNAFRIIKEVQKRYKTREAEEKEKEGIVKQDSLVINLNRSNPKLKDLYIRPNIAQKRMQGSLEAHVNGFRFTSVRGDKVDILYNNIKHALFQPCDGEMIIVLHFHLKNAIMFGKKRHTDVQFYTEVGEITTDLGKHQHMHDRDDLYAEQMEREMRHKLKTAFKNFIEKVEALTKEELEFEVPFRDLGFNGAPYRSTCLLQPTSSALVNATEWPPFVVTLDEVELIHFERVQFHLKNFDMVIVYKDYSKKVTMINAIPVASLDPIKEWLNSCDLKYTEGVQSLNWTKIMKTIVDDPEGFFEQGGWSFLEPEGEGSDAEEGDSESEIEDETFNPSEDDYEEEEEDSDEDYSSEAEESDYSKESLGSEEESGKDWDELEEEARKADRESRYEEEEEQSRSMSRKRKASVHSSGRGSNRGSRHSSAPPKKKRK

co-IP mass spectrometry count (RPS14): 18 | co-IP mass spectrometry count (CHCHD3): 15
B1: C-terminal FLAG tagged B3GNT2 (enzyme, human, UniProt Q9NY97 1-397, looked up)
chain: MSVGRRRIKLLGILMMANVFIYFIMEVSKSSSQEKNGKGEVIIPKEKFWKISTPPEAYWNREQEKLNRQYNPILSMLTNQTGEAGRLSNISHLNYCEPDLRVTSVVTGFNNLPDRFKDFLLYLRCRNYSLLIDQPDKCAKKPFLLLAIKSLTPHFARRQAIRESWGQESNAGNQTVVRVFLLGQTPPEDNHPDLSDMLKFESEKHQDILMWNYRDTFFNLSLKEVLFLRWVSTSCPDTEFVFKGDDDVFVNTHHILNYLNSLSKTKAKDLFIGDVIHNAGPHRDKKLKYYIPEVVYSGLYPPYAGGGGFLYSGHLALRLYHITDQVHLYPIDDVYTGMCLQKLGLVPEKHKGFRTFDIEEKNKNNICSYVDLMLVHSRKPQEMIDIWSQLQSAHLKC
notes: FLAG-tagged ORF overexpressed in cells; pulled down from lysate with mouse anti-FLAG; also called C-FLAG B3GNT2; C-term flag; not shown: C-terminal FLAG tag

co-IP mass spectrometry count (N-term FLAG) (TIMP3): 0 | co-IP mass spectrometry count (N-term FLAG) (KHDRBS1): 9 | co-IP mass spectrometry count (N-term FLAG) (CPSF6): 30 | co-IP mass spectrometry count (N-term FLAG) (TCP1): 0 | co-IP mass spectrometry count (N-term FLAG) (TFAM): 0 | co-IP mass spectrometry count (N-term FLAG) (SUPT16H): 0
B2: N-terminal FLAG tagged B3GNT2 (enzyme, human, UniProt Q9NY97 1-397, looked up)
chain: B1 chain
notes: FLAG-tagged ORF overexpressed in A375 cells; bait of the co-IP with mouse anti-FLAG; also called N-FLAG B3GNT2; N-term FLAG; not shown: N-terminal FLAG tag
